Where a chain is given by its changes, count along the chain named.
T1: mouse IL-10Rα on splenocytes (mouse, UniProt Q61727 17-575)
T1 construct: whole, on cells
T1 sequence (looked up): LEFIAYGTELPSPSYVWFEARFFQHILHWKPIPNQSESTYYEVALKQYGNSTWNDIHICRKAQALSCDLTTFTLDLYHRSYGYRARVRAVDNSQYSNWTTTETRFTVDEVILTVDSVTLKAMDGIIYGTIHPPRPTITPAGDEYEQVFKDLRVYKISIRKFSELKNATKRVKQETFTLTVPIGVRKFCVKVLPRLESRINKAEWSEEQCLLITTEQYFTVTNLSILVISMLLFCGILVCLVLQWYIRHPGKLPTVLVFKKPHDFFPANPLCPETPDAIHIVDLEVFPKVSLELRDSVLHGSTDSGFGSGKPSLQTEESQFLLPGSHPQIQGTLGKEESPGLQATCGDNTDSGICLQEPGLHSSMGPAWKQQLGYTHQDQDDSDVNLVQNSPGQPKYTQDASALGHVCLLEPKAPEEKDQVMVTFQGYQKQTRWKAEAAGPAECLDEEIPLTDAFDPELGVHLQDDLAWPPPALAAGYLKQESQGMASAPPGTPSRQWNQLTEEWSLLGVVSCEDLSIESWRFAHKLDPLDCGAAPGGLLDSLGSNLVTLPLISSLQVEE

T2: Ac-SIFSHFREYE-NH2 (human)
T2 peptide: Ac-SIFSHFREYE-NH2

T3: Ac-SVASRSNKGM-NH2 (human)
T3 peptide: Ac-SVASRSNKGM-NH2

T4: Ac-TVTNTRFSVD-NH2 (human)
T4 peptide: Ac-TVTNTRFSVD-NH2

T5: Ac-GNFTFTHKKV-NH2 (human)
T5 peptide: Ac-GNFTFTHKKV-NH2

T6: Ac-YHSNGYRARVRA-NH2 (human)
T6 peptide: Ac-YHSNGYRARVRA-NH2

T7: human IL-10Rα on cells (human, UniProt Q13651 22-578)
T7 construct: Full-length entry with signal peptide; endogenous on PBMC and RPMI-8226 cells, transfected in EL-4 and CHO-K1 cells; also called IL-10R on RPMI-8226 cells; IL-10Rα on human PBMC, lymphocytes and monocytes
T7 sequence: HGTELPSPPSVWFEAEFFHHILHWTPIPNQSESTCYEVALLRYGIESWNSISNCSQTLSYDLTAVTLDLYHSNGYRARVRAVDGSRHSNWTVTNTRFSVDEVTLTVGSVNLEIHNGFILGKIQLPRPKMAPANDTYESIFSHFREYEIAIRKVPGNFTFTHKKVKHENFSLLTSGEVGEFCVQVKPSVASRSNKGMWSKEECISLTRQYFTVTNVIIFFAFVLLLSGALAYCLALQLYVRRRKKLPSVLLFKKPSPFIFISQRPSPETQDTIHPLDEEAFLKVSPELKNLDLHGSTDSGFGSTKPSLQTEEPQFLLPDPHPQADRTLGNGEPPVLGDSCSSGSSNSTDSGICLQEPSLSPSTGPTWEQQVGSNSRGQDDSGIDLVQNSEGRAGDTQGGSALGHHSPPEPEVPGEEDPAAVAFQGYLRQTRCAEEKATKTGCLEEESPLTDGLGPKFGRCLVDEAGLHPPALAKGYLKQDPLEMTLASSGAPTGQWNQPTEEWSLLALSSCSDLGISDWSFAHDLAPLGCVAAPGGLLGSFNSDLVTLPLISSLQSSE

B1: 136C5 (antibody, V domains shown)
VH: EVQLVESGGGLVQPGGSLRLSCAASGFTFSSYSMNWVRQAPGKGLEWVSYISTGSSTIYYADSVKGRFTISRDNAKNSLYLQMNSLRDEDTAVYYCARENYYGSGSYEDYFDYWGQGTLVTVSS
VL: EIVLTQSPATLSLSPGERATLSCRASQSVSSYLAWYQQKPGQAPRLLIYDASNRATGIPARFSGSGSGTDFTLTISSLEPEDFAVYYCQQRSNWPIFTFGPGTKVDIK
notes: Hybridoma antibody, human IgG1, kappa light chain; also called human anti-human IL-10Rα monoclonal antibody 136C5; hybridoma deposit PTA-9131
B2: 136C8 (antibody, V domains shown)
VH: B1 VH with G54R
VL: B1 VL
notes: Hybridoma antibody, human IgG2, kappa light chain; also called human anti-human IL-10Rα monoclonal antibody 136C8; hybridoma deposit PTA-9132

Key:
[1] = target: T1, mouse IL-10Rα on splenocytes; experiment: flow cytometry on splenocytes
Ac-SIFSHFREYE-NH2 = target: T2, Ac-SIFSHFREYE-NH2; experiment: dot blot on PVDF or nitrocellulose membrane
Method: (§1) Methods to detect antibody binding to peptides derived from the human IL-10Rα sequence: Multiple methods were employed to detect binding of anti-human IL-10Rα antibodies to peptides derived from the extracellular domain of human IL-10Rα that have been reported by Reineke, et al. (Reineke, et al., Protein Sci 7:951 (1998)) to be included in the IL-10 binding site of the receptor. The following amide synthesized peptides were tested: Ac-[…]-NH2, Ac-[…]-NH2, Ac-[…]-NH2, Ac-[…]-NH2, Ac-[…]-NH2 (SEQ ID NO. 81-85). In addition, the following biotinylated peptides were tested: Biotin-[…]-NH2, Biotin-[…]-NH2 (SEQ ID NO. 86-87). The amide peptides were synthesized by A&A Labs, LLC (San Diego, Calif.) and the biotinylated peptides were synthesized by GenScript (Piscataway, N.J.) both at >95% purity and reconstituted at 20 mg/ml in DMSO. In one assay design peptides were spotted at 5 μg/spot in PBS onto PVDF membranes or nitrocellulose membranes that had been prepared according to the manufacturer's instructions. The membranes were incubated with anti-IL-10Rα antibodies using standard Western blotting methods (e.g. Towbin, et al., Proc Natl Acad Sci 76:4350 (1979)). Native human IL-10Ra:hFc and heat denatured human IL-10Ra:hFc were also spotted at 1 μg/spot on the membranes as controls. Negative controls included an irrelevant peptide and isotype controls. […] None of the antibodies bound to the spotted denatured protein or to any of the peptides derived from the human IL-10Ra extracellular domain or the irrelevant peptide.

Ac-SVASRSNKGM-NH2 = target: T3, Ac-SVASRSNKGM-NH2; experiment: dot blot on PVDF or nitrocellulose membrane
Method: as §1

Ac-TVTNTRFSVD-NH2 = target: T4, Ac-TVTNTRFSVD-NH2; experiment: dot blot on PVDF or nitrocellulose membrane
Method: as §1

Ac-GNFTFTHKKV-NH2 = target: T5, Ac-GNFTFTHKKV-NH2; experiment: dot blot on PVDF or nitrocellulose membrane
Method: as §1

Ac-YHSNGYRARVRA-NH2 = target: T6, Ac-YHSNGYRARVRA-NH2; experiment: dot blot on PVDF or nitrocellulose membrane
Method: as §1

human IL-10Rα on cells = target: T7, human IL-10Rα on cells; experiment: flow cytometry, RPMI-8226 cells pre-incubated with biotinylated human IL-10 (competitor)
Method: IL-10 Blocking Assay: To determine if the anti-human IL-10Rα antibodies were blocked by binding of IL-10 to the receptor on the cell surface, a flow cytometric protocol was used. In the flow cytometric assay, RPMI-8226 cells were washed and resuspended in staining buffer and then incubated with biotinylated human IL-10 or a negative control protein (R&D Systems) for 30 minutes on ice. The anti-IL-10Rα antibodies were then added to the cells for an additional 30 minutes. The cells were washed and incubated with anti-human IgG conjugated to PE (Southern Biotech Associates) for 30 minutes. After another wash, the cells were fixed with 1% paraformaldehyde and analyzed on a FACS Calibur. The fold reduction in antibody binding was determined using the geometric mean fluorescence intensity in the following formula: Fold reduction=geometric mean fluorescence intensity in the absence of IL-10/geometric mean fluorescence intensity binding in presence of IL-10.
Recombinant IL-10 binding to the IL-10R expressed by RPMI-8226 cells reduced binding of the anti-human IL-10Rα antibodies (FIG. 3A). The reduction in antibody binding was similar for all antibodies tested. […] The fold reduction in binding by IL-10 (Table 3) was determined by dividing the geo mean of the antibody binding in the absence of IL-10 by the geo mean in the presence of IL-10. […]

| Binder | binding result [1] | binding result (Ac-SIFSHFREYE-NH2) | binding result (Ac-SVASRSNKGM-NH2) | binding result (Ac-TVTNTRFSVD-NH2) | binding result (Ac-GNFTFTHKKV-NH2) | binding result (Ac-YHSNGYRARVRA-NH2) | Fold Reduction by IL-10 (human IL-10Rα on cells) |
| --- | --- | --- | --- | --- | --- | --- | --- |
| B1 | no binding | no binding (tested: 5 µg/spot) | no binding (tested: 5 µg/spot) | no binding (tested: 5 µg/spot) | no binding (tested: 5 µg/spot) | no binding (tested: 5 µg/spot) | 1.88 fold |
| B2 | no binding | no binding (tested: 5 µg/spot) | no binding (tested: 5 µg/spot) | no binding (tested: 5 µg/spot) | no binding (tested: 5 µg/spot) | no binding (tested: 5 µg/spot) | 1.98 fold |
